Laboratory results reported in patent US20220185876A1 (ATARGA, published 2022).
Where a chain is given by its changes, count along the chain named. Read-outs that look alike come from different tables or passages of the source. Values belong to the binder of their own block, whether it stands above or below them.

Key:
human FGF23 [1] = target: T1, human FGF23 (human, UniProt Q9GZV9 25-251); assay: cell-based or functional assay
T1 sequence: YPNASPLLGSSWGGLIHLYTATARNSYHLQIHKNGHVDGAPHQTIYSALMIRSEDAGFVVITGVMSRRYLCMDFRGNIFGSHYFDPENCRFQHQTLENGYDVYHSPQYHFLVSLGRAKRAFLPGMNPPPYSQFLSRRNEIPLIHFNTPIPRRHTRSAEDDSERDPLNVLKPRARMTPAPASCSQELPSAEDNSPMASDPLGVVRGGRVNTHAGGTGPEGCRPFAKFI

human FGF23 [2] = target: T1, human FGF23; assay: ELISA, binding to human FGF23 (A450 against log mAb concentration)
human FGF23 [3] = target: T1, human FGF23; assay: as above; remark: listed apart in the source
human FGF23 [4] = target: T1, human FGF23; assay: cell-based or functional assay; remark: listed apart in the source

B1: ExA11 (antibody, V domains shown)
VH: QVQLVQSGAELKKPGASVKVSCKASGYTFTNHYMHWVRQAPGQGLEWMGIINPISGSTTYAQKFQGRVTMTRDTSSSTAYMDLSRLTSDDTAVYYCARDIVDAFDFWGQGTTVTVSS
VL: AIQLTQSPSSLSASVGDRVTITCRASQGISSALVWYQQKPGQAPRLLIYDASSLESGIPARFSGSGSGTDFTLTISSLEPEDFAVYYCQQFNDYFTFGQGTKLEIK
notes: Monoclonal anti-FGF23 antibody
IC50, neutralisation of recombinant human FGF23-stimulated proliferation of NIH-3T3 cells (fluorescence) (human FGF23 [1]): 0.411 µg/mL
EC50 (human FGF23 [2]): 0.0267 µg/mL

B2: ExA35 (antibody, V domains shown)
VH: QVQLLESGAVLARPGTSVKISCKASGYTFTNHYMHWVKQRPGQGLEWIGIINPITGSSSNAQKFQGRVTITRDTSTSTVFMELSSLRSEDTAVYYCARDIVDAFDFWGQGTLVTVSS
VL: B1 VL
notes: as for B1
IC50, neutralisation of recombinant human FGF23-stimulated proliferation of NIH-3T3 cells (fluorescence) (human FGF23 [1]): 0.355 µg/mL
EC50 (human FGF23 [2]): 0.0238 µg/mL

B4: Exc23 (antibody, V domains shown)
VH: EVQLVQSGAEVRKPGASVKVSCKASGYTFTNHYMHWVRQAPGQGLEWMGIINPISGSTSNAQKLQGRVTFTRDTSANTAYMELSGLIPEDTAIYYCARDIVDAFDFWGQGTLVTVSS
VL: DIQMTQSPSSLSASVGDRVTITCKASQGISSALVWYQQKPGKAPKLLIYDASSLQTGVPSRFSGSGSGTDFTFTISSLQPEDIATYYCQQFNDYFSFGPGTKLEIK
notes: as for B1
EC50 (human FGF23 [3]): 0.0295 µg/mL

B5: ExC17 (antibody, V domains shown)
VH: B4 VH
VL: B1 VL with A1D, E55Q, Y94L
notes: as for B1
IC50, neutralisation of recombinant human FGF23-stimulated proliferation of NIH-3T3 cells (fluorescence) (human FGF23 [1]): 0.2 µg/mL
EC50 (human FGF23 [2]): 0.0181 µg/mL

B6: ExA43 (antibody, V domains shown)
VH: B4 VH with D99E
VL: B1 VL
notes: as for B1
EC50 (human FGF23 [2]): 0.0278 µg/mL

B7: ExA28 (antibody, V domains shown)
VH: B4 VH
VL: B4 VL with D1A, K24R, Q55E, T56S, S96T
notes: as for B1
IC50, neutralisation of recombinant human FGF23-stimulated proliferation of NIH-3T3 cells (fluorescence) (human FGF23 [1]): 0.316 µg/mL
EC50 (human FGF23 [2]): 0.0248 µg/mL

B9: ExA60 (antibody, V domains shown)
VH: B4 VH with T28S, I54N, F106Y
VL: B4 VL with D1A, K24R, Q55E, T56S, S96T
notes: as for B1
IC50, neutralisation of recombinant human FGF23-stimulated proliferation of NIH-3T3 cells (fluorescence) (human FGF23 [1]): 0.5 µg/mL
EC50 (human FGF23 [2]): 0.0233 µg/mL

More lines, now with the values ahead:

IC50, neutralisation of recombinant human FGF23-stimulated proliferation of NIH-3T3 cells (fluorescence) (human FGF23 [1]): 0.199 µg/mL
EC50 (human FGF23 [2]): 0.0204 µg/mL
B3: ExC50 (antibody, V domains shown)
VH: B2 VH with T28S, I100L
VL: B1 VL with A1D, E55Q
notes: as for B1

EC50 (human FGF23 [3]): 0.0273 µg/mL
B8: Exc23.5 (antibody, V domains shown)
VH: B4 VH
VL: B4 VL with D1A
notes: as for B1

IC50, neutralisation of recombinant human FGF23-stimulated proliferation of NIH-3T3 cells (fluorescence) (human FGF23 [4]): 1.29 µg/mL
EC50 (human FGF23 [3]): 0.0286 µg/mL
B10: Exc23.3 (antibody, V domains shown)
VH: B4 VH
VL: B4 VL with S96T
notes: as for B1

EC50 (human FGF23 [3]): 0.0262 µg/mL
B11: Exc23.2 (antibody, V domains shown)
VH: B4 VH
VL: B4 VL with T56S
notes: as for B1

EC50 (human FGF23 [3]): 0.0266 µg/mL
B12: Exc23.4 (antibody, V domains shown)
VH: B4 VH
VL: B4 VL with K24R
notes: as for B1

IC50, neutralisation of recombinant human FGF23-stimulated proliferation of NIH-3T3 cells (fluorescence) (human FGF23 [4]): 1.63 µg/mL
EC50 (human FGF23 [3]): 0.0332 µg/mL
B13: Exc23.1 (antibody, V domains shown)
VH: B4 VH
VL: B4 VL with Q55E
notes: as for B1
